Reference: US20080166352A1 (Amgen, published 2008)
Residue numbers refer to the chain shown, from its start. Values belong to the binder of their own block, whether it stands above or below them.

Columns and labels:
[1] = biological target: T1, human B7RP1-Fc fusion protein (human, UniProt O75144 19-256, limits assumed); experiment: Biacore solution equilibrium: mAb pre-incubated with B7RP1-Fc, free mAb read on immobilized B7RP1-Fc
T1 construct: also called hB7RP-1-Fc; hB7RP1Fc; not shown: Fc part
T1 sequence (looked up): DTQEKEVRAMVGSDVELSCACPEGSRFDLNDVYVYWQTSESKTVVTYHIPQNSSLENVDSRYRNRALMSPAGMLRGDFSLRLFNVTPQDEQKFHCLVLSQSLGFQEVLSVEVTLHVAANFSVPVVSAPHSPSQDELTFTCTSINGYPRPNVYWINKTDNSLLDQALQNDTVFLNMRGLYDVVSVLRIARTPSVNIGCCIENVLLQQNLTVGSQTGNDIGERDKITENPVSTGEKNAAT
Protocol: (§1) A fixed concentration of mAb was then incubated with varying concentrations of B7RP-1 or B7RP1-Fc for at least eight hours at room temperature to allow them to reach equilibrium. The samples were then injected over the B7RP1-Fc surface, and the binding signal observed represented free antibody remaining in solution at equilibrium.

[2] = biological target: T2, soluble recombinant human B7RP-1 (human, UniProt O75144 19-256, limits assumed); experiment: Biacore solution equilibrium: mAb pre-incubated with soluble B7RP-1, free mAb read on immobilized B7RP1-Fc
T2 construct: also called hB7RP-1; soluble B7RP-1
T2 sequence (looked up): T1 sequence (looked up)
Protocol: as §1

[3] = biological target: T2, soluble recombinant human B7RP-1; experiment: Biacore mono column of Table 4 (same value as Table 3)
Protocol: as §1

[4] = biological target: T1, human B7RP1-Fc fusion protein; experiment: Biacore Fc column of Table 4 (same value as Table 3)
Protocol: as §1

[5] = biological target: T3, human B7RP-1 Ig2 (IgC-like) domain fused to chicken avidin (human; chicken, UniProt O75144 120-246); experiment: avidin fusion on biotin-coated beads, fluorescently labeled 16H, flow cytometry
T3 construct: Order of the parts not certain ('N-terminal, in-frame fusions with chicken avidin'); also called Ig2 domain; membrane-proximal Ig2 domain; not shown: chicken avidin
T3 sequence: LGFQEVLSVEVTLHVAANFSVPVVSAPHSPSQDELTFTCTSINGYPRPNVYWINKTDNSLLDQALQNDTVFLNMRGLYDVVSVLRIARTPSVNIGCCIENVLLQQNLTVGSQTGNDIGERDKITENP
Protocol: (§2) Expression vectors containing genes encoding these fusion proteins were individually transiently transfected into 293T cells and the conditioned media from these cell lines were used as the source of fusion protein. The avidin-tag was used to capture the B7R-1 fusion proteins from solution using a biotin-coated bead. Fusion proteins were incubated with either fluorescently-labeled 16H or 5D mAbs or a fluorescently-labeled ICOS-Fc fusion protein, and incubated with biotin-coated beads The beads were recovered and analyzed using flow cytometry on a Becton-Dickinson Bioscience FACScan (BD, Franklin Lakes, N.J.). […] Thus, the ICOS, 16H, and 5D binding regions on B7RP-1 were located in the Ig1 domain

[6] = biological target: T1, human B7RP1-Fc fusion protein; experiment: cell-based or functional assay
[7] = biological target: T4, full-length human B7RP-1 on cells (human, UniProt O75144 19-302); experiment: cell-based or functional assay
T4 sequence (looked up): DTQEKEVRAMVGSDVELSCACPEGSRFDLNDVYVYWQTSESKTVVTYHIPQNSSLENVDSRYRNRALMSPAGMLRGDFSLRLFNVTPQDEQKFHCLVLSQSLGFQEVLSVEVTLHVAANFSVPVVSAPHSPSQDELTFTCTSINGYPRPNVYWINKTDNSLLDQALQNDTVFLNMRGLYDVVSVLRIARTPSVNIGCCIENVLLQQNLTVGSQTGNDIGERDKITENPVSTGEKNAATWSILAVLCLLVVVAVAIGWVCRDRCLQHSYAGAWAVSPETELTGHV

[8] = biological target: T2, soluble recombinant human B7RP-1; experiment: KinExA, dual-curve fit at [Ab] 100 pM and 300 pM, hB7RP-1 titrated in solution
Protocol: (§3) Binding of 5D, 2H, and 2H germline antibodies was also tested using KinExA (kinetic exclusion assay) technology. In this assay, hB7RP-1 was coupled to agarose beads. The beads were used to create a bead column. Samples containing antibody at a fixed concentration, which were allowed to come to equilibrium with varying concentrations of hB7RP-1, were then passed over the bead column. Antibody not complexed with ligand bound to the coated beads.
(§4) A fluorescent tagged anti-human Fc secondary antibody was used to detect bound test antibody.

[9] = biological target: T2, soluble recombinant human B7RP-1; experiment: KinExA, hB7RP-1 on agarose beads, antibody equilibrated with hB7RP-1 in solution
Protocol: as §3, §4

[10] = biological target: T3, human B7RP-1 Ig2 (IgC-like) domain …; experiment: flow cytometry of biotin-coated beads capturing the avidin fusion protein, stained with fluorescently labelled antibody
[11] = biological target: T1, human B7RP1-Fc fusion protein; experiment: Biacore Fc column of Table 4
[12] = biological target: T3, human B7RP-1 Ig2 (IgC-like) domain …; experiment: avidin fusion on biotin-coated beads, fluorescently labeled 5D, flow cytometry
Protocol: (§5) Experiments were conducted to identify the region on B7RP-1 to which the 16H/16Hg and 5D monoclonal antibodies bind. To do this a novel Fluorescence-Activated Cell Sorter (FACS) binding assay was developed. The human extracellular domain (ECD) of B7RP1 (SEQ ID NO: 66) as well as truncated forms of B7RP-1 containing either the Ig1 (IgV-like; SEQ ID NO: 67) or the Ig2 (IgC-like; SEQ ID NO: 68) were expressed as N-terminal, in-frame fusions with chicken avidin.
as §2

[13] = biological target: T3, human B7RP-1 Ig2 (IgC-like) domain …; experiment: avidin fusion on biotin-coated beads, fluorescently labeled ICOS-Fc, flow cytometry
Protocol: as §5, §2

B1: anti-B7RP1 human monoclonal antibody 16H (antibody, V domains shown)
VH: EVQLVESGGGLVQPGGSLRLSCAGSGFTFSSYWMSWVRQAPGKGLEWVAYIKQDGNEKYYVDSVKGRFTISRDNAKKSLYLQMNSLRAEDTAVYYCAREGILWFGDLPTFWGQGILVTVSS
VL: DIQMTQSPSSLSASVGDRVTITCRASQGISNWLAWYQQKPEKAPKSLIYAASSLQSGVPSRFSGSGSGTDFTLTISSLQPEDFATYYCQQYDSYPRTFGQGTKVEIK
notes: Fluorescently labelled in the flow cytometry assays; also called 16H mAb; B7RP-1 16H
Kd [1]: 0.027 nM
Kd [2]: 1.9 nM
Kd [3]: 1.9 nM
Kd [4]: 0.027 nM
binding result [5]: no binding
Plate (co-stimulation assay, T cell proliferation) EC50 [6]: 0.053 nM
CHO (co-stimulation assay with hB7RP1 transfected CHO cells, T cell proliferation) EC50 [7]: 0.276 nM

B3: anti-B7RP1 human monoclonal antibody 2H germline (antibody, V domains shown)
VH: B1 VH with G24A, N56S, K77N, E99D, L107I, F110Y, I115T
VL: B1 VL with A50T, D92N
Kd [8]: 0.4 nM

B5: anti-B7RP1 human monoclonal antibody 2H (antibody, V domains shown)
VH: B1 VH with A23V, N56S, K77N, E99D, L107I, F110Y
VL: B1 VL with A50T, D92N
fold difference in KD against 5D [9]: ~10 fold
binding result [10]: no binding
Kd [11]: 0.089 nM
Kd [8]: 0.33 nM
Plate (co-stimulation assay, T cell proliferation) EC50 [6]: 0.043 nM
CHO (co-stimulation assay with hB7RP1 transfected CHO cells, T cell proliferation) EC50 [7]: 1.45 nM

B7: anti-B7RP1 human monoclonal antibody 15H (antibody, V domains shown)
VH: EVQLVQSGGGLVHPGGSLRLSCAGSGFTFSSYAMHWVRQAPGKGLEWVSAIGTGGGTYYADSVKGRFTISRDNAKNSLYLQMNSLRAEDMAMYYCAKSGVPLLWFGEFYWGQGTLVTVSS
VL: not shown
Plate (co-stimulation assay, T cell proliferation) EC50 [6]: 0.036 nM

Next, values leading:

Plate (co-stimulation assay, T cell proliferation) EC50 [6]: 0.046 nM
B2: anti-B7RP1 human monoclonal antibody 43H (antibody, V domains shown)
VH: EVQLVQSGGGLVHPGGSLRLSCAGSGFTFSSYAMHWVRQAPGKGLEWVSAIGAGGGTYYADSVKGRFTISRDNAKNSLYLQMNSLRAEDMAVYYCARVVVVVGFFDYWGQGTLVTVSS
VL: B1 VL with N31S, Y49F, D92N, R96Y, V104L

Plate (co-stimulation assay, T cell proliferation) EC50 [6]: 0.052 nM
B4: anti-B7RP1 human monoclonal antibody 41H (antibody, V domains shown)
VH: B1 VH with G24A, N56S, K77N, E99D, F110Y, I115T
VL: B1 VL with N31S, D92N, S93T

Kd [1]: 0.017 nM
Kd [2]: 2.7 nM
Kd [3]: 2.7 nM
Kd [4]: 0.017 nM
Plate (co-stimulation assay, T cell proliferation) EC50 [6]: 0.032 nM
CHO (co-stimulation assay with hB7RP1 transfected CHO cells, T cell proliferation) EC50 [7]: 0.523 nM
B6: anti-B7RP1 human monoclonal antibody 16H germline (antibody, V domains shown)
VH: B1 VH with G24A, K77N, I115T
VL: B1 VL

binding result [12]: no binding
Kd [1]: 0.0016 nM
Kd [2]: 0.037 nM
Kd [3]: 0.037 nM
Kd [4]: 0.0016 nM
Kd [8]: 0.018 nM
Plate (co-stimulation assay, T cell proliferation) EC50 [6]: 0.055 nM
CHO (co-stimulation assay with hB7RP1 transfected CHO cells, T cell proliferation) EC50 [7]: 1.46 nM
B8: anti-B7RP1 human monoclonal antibody 5D (antibody, V domains shown)
VH: QVQLVESGGGVVQPGRSLRLSCAASGFTFSSYGMHWVRQAPGKGLEWVAVIWYDGSKKYYADSVEGRFTISRDNSKNTLYLQMNSLRAEDTAVFYCARDLNIMVWGIFDYWGQGTLVTVSS
VL: EIVLTQSPATLSLSPGERATLSCRASQSVSSYLAWYQQKPGQAPRLLIYDASNRATGIPARFSGSGSGTDFTLTISSLEPEDFAVYYCQQRNNWPWTFGQGTKVEIK
notes: Fluorescently labelled in the flow cytometry assays; also called 5D mAb; B7RP-1 5D

binding result [13]: no binding
Kd [11]: 1 nM
CHO (co-stimulation assay with hB7RP1 transfected CHO cells, T cell proliferation) EC50 [7]: 10.7 nM
B9: ICOS-Fc fusion protein (Fc fusion, UniProt Q9Y6W8 21-140, looked up)
chain: EINGSANYEMFIFHNGGVQILCKYPDIVQQFKMQLLKGGQILCDLTKTKGSGNTVSIKSLKFCHSQLSNNSVSFFLYNLDHSHANYYFCNLSIFDPPPFKVTLTGGYLHIYESQLCCQLK
notes: Fluorescently labelled in the flow cytometry assays; also called ICOS reagent; not shown: Fc part
